Test results: patent US10562947B2, “Compositions and methods for preventing or treating diseases, conditions or processes characterized by aberrant fibroblast proliferation and extracellular matrix deposition” (MOERAE MATRIX, INC., priority 2011, dated 2020)

How the values were obtained:
Assay in all cases: Kinase Profiling Assay
Assay type in all cases: biochemical
Conditions in all cases: 100 μM peptide
CHK2(h) = CHK2(h) (Homo sapiens, UniProt O96017)
Summary of the method: (§1)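 Selectivity profiling: MK2-targeting peptides tested on 266 human kinases. All activity determinations done in duplicate.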

LOK(h) = LOK(h) (Homo sapiens, UniProt O94804)
LOK(h), sequence (O94804 whole entry): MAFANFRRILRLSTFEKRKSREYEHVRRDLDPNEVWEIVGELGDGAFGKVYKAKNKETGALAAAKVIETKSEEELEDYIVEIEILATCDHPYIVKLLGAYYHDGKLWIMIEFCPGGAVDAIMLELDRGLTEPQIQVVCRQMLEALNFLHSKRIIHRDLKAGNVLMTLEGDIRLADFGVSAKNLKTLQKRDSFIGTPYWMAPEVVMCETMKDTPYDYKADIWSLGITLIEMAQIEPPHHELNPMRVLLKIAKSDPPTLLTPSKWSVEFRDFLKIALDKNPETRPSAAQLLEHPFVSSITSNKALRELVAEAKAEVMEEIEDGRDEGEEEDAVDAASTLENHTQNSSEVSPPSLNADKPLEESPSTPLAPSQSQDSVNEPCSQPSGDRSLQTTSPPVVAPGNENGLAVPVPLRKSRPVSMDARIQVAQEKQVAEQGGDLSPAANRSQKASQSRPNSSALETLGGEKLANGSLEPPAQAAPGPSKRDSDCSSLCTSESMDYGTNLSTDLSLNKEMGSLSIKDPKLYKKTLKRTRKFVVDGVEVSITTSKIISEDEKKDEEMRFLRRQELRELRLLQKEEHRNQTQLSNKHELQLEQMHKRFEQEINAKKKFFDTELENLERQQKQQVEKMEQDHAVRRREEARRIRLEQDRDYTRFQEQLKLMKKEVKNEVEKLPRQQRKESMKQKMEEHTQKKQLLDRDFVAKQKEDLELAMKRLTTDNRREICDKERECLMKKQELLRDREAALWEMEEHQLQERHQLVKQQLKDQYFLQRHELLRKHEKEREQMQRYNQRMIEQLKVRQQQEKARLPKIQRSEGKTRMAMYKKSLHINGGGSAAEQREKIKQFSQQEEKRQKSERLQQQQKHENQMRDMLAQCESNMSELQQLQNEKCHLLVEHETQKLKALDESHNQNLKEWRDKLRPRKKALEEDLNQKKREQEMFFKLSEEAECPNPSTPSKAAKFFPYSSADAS
Summary of the method: as §1

GRK6(h) = target: T1, GRK6(h) (Homo sapiens, UniProt P43250)
T1 construct: purchased Millipore
T1 sequence (P43250 whole entry): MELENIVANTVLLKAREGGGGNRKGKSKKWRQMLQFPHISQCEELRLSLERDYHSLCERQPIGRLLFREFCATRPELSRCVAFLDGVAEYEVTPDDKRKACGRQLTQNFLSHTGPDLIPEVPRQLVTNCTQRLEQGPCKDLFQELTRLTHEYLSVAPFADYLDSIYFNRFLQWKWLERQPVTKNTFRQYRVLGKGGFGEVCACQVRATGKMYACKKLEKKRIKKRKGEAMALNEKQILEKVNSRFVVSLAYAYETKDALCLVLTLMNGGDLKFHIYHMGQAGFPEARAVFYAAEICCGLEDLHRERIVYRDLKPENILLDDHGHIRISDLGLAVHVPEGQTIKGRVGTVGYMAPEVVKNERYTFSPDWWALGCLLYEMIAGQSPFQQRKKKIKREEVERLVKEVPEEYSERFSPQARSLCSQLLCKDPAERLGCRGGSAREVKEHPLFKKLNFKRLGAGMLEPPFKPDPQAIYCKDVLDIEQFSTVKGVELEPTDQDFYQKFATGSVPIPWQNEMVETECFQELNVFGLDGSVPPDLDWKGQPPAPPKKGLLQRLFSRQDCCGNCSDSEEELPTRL
Summary of the method: as §1

TBK1(h) = target: T2, TBK1(h) (Homo sapiens, UniProt Q9UHD2)
T2 sequence (Q9UHD2 1-729): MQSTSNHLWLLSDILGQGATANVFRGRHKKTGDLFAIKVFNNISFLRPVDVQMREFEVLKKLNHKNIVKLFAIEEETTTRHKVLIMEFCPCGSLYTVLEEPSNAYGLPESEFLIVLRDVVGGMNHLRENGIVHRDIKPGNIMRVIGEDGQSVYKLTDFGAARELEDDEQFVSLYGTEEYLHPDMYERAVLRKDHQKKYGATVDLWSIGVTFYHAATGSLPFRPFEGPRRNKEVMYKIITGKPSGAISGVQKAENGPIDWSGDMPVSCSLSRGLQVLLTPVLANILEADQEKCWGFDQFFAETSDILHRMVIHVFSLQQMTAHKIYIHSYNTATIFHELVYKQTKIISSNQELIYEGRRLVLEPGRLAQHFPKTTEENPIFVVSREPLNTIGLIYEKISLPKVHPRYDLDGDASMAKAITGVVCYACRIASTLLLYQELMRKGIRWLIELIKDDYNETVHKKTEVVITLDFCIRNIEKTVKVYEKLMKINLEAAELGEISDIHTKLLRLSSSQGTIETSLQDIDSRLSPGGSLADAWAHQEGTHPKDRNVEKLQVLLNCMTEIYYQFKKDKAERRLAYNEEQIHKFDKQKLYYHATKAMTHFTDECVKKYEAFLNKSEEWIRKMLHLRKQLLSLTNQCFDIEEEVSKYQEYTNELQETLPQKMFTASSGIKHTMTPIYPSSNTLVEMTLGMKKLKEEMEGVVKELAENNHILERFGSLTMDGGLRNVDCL
Summary of the method: as §1

TAO2(h) = target: T3, TAO2(h) (Homo sapiens, UniProt Q9UL54)
T3 sequence (Q9UL54 1-1235): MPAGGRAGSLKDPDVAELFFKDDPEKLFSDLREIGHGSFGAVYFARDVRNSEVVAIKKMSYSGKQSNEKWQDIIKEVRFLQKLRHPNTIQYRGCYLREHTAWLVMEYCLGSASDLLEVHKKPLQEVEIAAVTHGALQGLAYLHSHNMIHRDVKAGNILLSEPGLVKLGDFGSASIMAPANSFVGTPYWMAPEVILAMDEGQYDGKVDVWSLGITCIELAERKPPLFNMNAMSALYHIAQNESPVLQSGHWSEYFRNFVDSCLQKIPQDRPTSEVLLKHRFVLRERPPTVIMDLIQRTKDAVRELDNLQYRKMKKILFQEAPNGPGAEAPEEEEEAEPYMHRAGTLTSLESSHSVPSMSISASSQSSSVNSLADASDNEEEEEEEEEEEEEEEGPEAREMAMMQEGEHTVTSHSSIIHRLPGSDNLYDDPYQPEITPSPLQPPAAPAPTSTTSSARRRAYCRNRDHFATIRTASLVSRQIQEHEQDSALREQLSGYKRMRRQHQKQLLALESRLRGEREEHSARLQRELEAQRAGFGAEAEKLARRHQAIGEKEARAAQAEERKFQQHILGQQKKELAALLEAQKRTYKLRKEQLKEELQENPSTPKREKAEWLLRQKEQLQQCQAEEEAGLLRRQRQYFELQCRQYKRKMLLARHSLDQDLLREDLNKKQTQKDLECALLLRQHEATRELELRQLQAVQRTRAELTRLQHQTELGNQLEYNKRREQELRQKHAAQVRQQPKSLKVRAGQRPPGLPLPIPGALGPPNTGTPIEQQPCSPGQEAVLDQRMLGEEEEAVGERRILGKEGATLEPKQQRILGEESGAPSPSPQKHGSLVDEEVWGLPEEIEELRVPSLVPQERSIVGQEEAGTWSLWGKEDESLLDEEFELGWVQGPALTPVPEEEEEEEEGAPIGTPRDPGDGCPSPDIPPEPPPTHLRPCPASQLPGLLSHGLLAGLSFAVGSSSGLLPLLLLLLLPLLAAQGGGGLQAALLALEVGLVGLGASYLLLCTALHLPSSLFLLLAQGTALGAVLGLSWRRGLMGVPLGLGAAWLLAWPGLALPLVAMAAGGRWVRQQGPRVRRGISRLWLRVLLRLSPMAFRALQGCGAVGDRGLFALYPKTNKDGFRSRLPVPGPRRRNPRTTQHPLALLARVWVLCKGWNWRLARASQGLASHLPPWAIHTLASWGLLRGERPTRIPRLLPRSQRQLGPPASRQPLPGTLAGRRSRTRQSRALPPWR
Summary of the method: as §1

DCAMKL2(h) = target: T4, DCAMKL2(h) (Homo sapiens, UniProt Q8N568)
T4 sequence (Q8N568 1-766): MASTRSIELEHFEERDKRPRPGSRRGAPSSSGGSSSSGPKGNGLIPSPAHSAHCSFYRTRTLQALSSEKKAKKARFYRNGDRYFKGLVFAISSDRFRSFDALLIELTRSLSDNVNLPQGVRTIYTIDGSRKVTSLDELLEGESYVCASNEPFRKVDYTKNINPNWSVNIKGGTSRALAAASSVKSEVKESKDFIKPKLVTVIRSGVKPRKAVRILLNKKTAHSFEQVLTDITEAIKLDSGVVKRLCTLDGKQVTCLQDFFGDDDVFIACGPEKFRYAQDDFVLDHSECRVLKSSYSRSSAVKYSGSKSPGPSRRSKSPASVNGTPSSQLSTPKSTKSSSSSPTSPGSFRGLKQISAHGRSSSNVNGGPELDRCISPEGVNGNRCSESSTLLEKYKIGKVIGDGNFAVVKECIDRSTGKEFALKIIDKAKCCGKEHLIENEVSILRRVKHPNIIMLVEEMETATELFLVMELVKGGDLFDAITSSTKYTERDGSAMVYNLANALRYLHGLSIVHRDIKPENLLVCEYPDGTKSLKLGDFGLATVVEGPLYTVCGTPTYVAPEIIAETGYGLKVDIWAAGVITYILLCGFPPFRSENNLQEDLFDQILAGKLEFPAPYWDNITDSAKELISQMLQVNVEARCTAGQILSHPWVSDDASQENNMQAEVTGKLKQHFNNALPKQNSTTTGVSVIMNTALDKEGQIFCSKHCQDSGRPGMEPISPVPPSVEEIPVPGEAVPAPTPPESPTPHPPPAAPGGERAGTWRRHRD
Summary of the method: as §1

CHK2(h), sequence (O96017 whole entry): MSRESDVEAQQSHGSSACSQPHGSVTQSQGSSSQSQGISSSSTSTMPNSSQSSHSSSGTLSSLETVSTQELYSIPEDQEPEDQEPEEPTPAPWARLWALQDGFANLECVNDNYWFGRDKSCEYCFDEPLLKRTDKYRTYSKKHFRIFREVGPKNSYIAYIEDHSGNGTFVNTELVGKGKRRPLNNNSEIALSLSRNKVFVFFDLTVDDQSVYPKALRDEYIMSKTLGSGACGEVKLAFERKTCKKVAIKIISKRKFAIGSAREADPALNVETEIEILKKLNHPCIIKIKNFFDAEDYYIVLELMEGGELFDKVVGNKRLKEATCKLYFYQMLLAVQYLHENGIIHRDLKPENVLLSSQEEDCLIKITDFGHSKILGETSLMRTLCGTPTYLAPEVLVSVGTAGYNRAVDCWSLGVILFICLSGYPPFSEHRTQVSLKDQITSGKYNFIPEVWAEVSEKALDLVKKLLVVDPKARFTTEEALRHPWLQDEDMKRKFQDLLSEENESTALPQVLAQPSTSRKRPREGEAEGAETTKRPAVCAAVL

Row | Sequence | CHK2(h) % activity (CHK2(h)) [%] | LOK(h) % activity (LOK(h)) [%] | GRK6(h) % activity (GRK6(h)) [%] | TBK1(h) % activity (TBK1(h)) [%] | TAO2(h) % activity (TAO2(h)) [%] | DCAMKL2(h) % activity (DCAMKL2(h)) [%]
1 | KAFAKLAARLYRKALARQLGVAA [MMI-0400] | 54 | 18 | 141 | 39 | 74 | 70
2 | YARAAARQARAKALNRQLGVA (Mammalian) [MMI-0200] | – | 67 | 132 | 98 | 93 | 131
3 | FAKLAARLYRKALARQLGVAA [MMI-0300] | 66 | 37 | 147 | 37 | 70 | 81
4 | HRRIKAWLKKIKALARQLGVAA (Mammalian) [MMI-0500] | 13 | 7 | 174 | 16 | 15 | 56
